Reference: patent US8367060B2, “Pharmaceutical composition containing arazyme for the prevention of liver dysfunction” (Insect Biotech Co., Ltd., priority 2006, dated 2013)
Entries after “also recorded” stand apart in the source; their conditions may differ.

Tests used:
liver cells = experiment: Histopathological observation on liver cells (H&E) in CCl4-induced acute liver injury; type: in vivo, mice; settings: for necrosis in liver cells: 100 mg/kg oral one day before CCl4 0.4 ml/kg i.p., autopsy 24 hours after CCl4
Source text: In the present invention, male wild type C57BL/6(WT) at 12 weeks and SMP30 knock-out C57BL/6(KO) mice were used to induce liver injury by CCl4 and then the relation of SMP30 with arazyme was investigated. 10 male and 20 female SMP30 knock-out C57BL/6 mice were distributed from Tokyo Metropolitan Institute of Gerontology, which were then raised in the animal laboratory at Department of Pathology, College of Veterinary Medicine, Kyungpook National University, Korea. Among F1 mice generated by breeding, knock-out mice were selected by tail DNA genotyping by PCR.
Wild type mice were quarantined and adapted for 7 days in the animal laboratory. During the adaptation, every symptom was checked and only healthy animals were selected. Both wild type and SMP30 knock-out mice were 12 weeks old, excluding the difference in age.
Rats were adapted and raised in an animal facility where temperature was regulated to 22±3° C., humidity was adjusted to 55±10% and light was also regulated to 12L/12D (08:00 lights on, 20:00 lights out). The environmental conditions were checked regularly (every three months). After environmental evaluation, no changes in important conditions were recognized. During the whole experiment period, rats were raised in polycarbonate cages [240 W×390 L×175 H (mm)] by up to 5 per cage. Skin mark using an oil magic pen and individual identification card were used for distinguishment. Feed for laboratory animals (PMI Nutrition International, 505 North 4th Street Richmond, in 47374, USA) was provided at any time after being sterilized by irradiation (13.2 kGy). Tap water was provided using a water bottle at any time after being purified by a carbon filter. Carbon tetrachloride was diluted in olive oil at the concentration of 0.4 ml/kg and administered to […] once to induce liver injury. 24 hours after the administration, autopsy was performed.
Wild type mice and SMP30 knock-out mice were divided, by 5 of each, into negative control groups (G1, G5), positive control groups (G2, G6), two of experimental group 1 (G3, G7) and two of experimental group 2 (G4, G8) (Table 1). Intraperitoneal administration of olive oil was performed once to negative control mice (G1, G5), while intraperitoneal administration of CCl4 (0.4 ml/kg) was performed once to positive control mice (G2, G6). In the meantime, 100 mg/kg of vitamin C dissolved in tap water was orally administered to experimental group 1 mice (G3, G7) one day before the intraperitoneal administration of CCl4 (0.4 ml/kg). 100 mg/kg of arazyme dissolved in tap water was orally administered to experimental group 2 mice (G4, G8) one day before the intraperitoneal administration of CCl4 (0.4 ml/kg). […]

SMP30 [1] = experiment: Immunohistochemical observation of SMP30 in liver cells; type: in vivo; settings: wild type mice, 100 mg/kg oral before CCl4, compared with CCl4 alone
Procedure: (§1) Wild type mice and SMP30 knock-out mice were divided, by 5 of each, into negative control groups (G1, G5), positive control groups (G2, G6), two of experimental group 1 (G3, G7) and two of experimental group 2 (G4, G8) (Table 1). Intraperitoneal administration of olive oil was performed once to negative control mice (G1, G5), while intraperitoneal administration of CCl4 (0.4 ml/kg) was performed once to positive control mice (G2, G6). In the meantime, 100 mg/kg of vitamin C dissolved in tap water was orally administered to experimental group 1 mice (G3, G7) one day before the intraperitoneal administration of CCl4 (0.4 ml/kg). 100 mg/kg of arazyme dissolved in tap water was orally administered to experimental group 2 mice (G4, G8) one day before the intraperitoneal administration of CCl4 (0.4 ml/kg). 24 hours after the administration of CCl4, autopsy was performed in every mouse and samples were taken from each mouse for histopathological test.
To observe SMP30 in liver cells immunohistochemically, paraffin embedded tissues fixed with formalin were cut into 4 μm thick sections, followed by deparaffinization. To inhibit the activity of endogenous peroxidase, the sections were treated in 3% H2O2 for 30 minutes and washed with 0.01 M PBS. To increase antigen expression of the tissues, the sections were treated with 0.01 M citrate buffer, followed by heat treatment using microwave. […]

SMP30 [2] = experiment: Expression of SMP30 in liver cells by immunoblotting; type: in vivo; settings: wild type mice; 100 mg/kg oral before CCl4; compared with CCl4 only (G2)
Procedure: as §1
(§2) The expression of SMP30 in liver cells was investigated by immunoblotting. First, the liver tissues frozen at −70° C. were homogenized in RIPA buffer containing 0.1 mM sodium orthovandate (Na3VO4) and protease inhibitor cocktail tablet (Roche, Mannheim, Germany). […] Protein concentration was measured by Bradford method and each protein sample proceeded onto 10% SDS-polyacrylamide gel at the concentration of 80 µg/well, followed by electrophoresis. […]

P-smad3 [3] = experiment: Immunohistochemical observation of P-smad3 expression in liver cells; type: in vivo, mice; settings: for P-smad3 immune response (immunohistochemistry): 100 mg/kg oral before CCl4, 100 mg/kg
P-smad3 [4] = experiment: Expression of P-smad3 in liver cells by immunoblotting; type: in vivo; settings: SMP30 knock-out mice; compared with CCl4 alone (G6)
Procedure: as §1, §2

rats = experiment: Acute toxicity test of arazyme, single oral administration; type: in vivo, Wistar rats; settings: female rats, oral 1250, 2500 and 5000 mg/kg once
Procedure: The following experiments were performed to see if arazyme has acute toxicity in rats.
9-week old SPF (specific pathogen-free) Wistar line rats (Orient, Co., Seoul, Korea) were raised in an animal facility (4 groups, 4 rats per group) where temperature was regulated to 22±3° C., humidity was adjusted to 55±10% and light was also regulated to 12L/12D. The rats were quarantined and adapted for one week before being used. During the whole experiment period, the rats were raised in polycarbonate cages [240 W×390 L×175 H (mm)] by up to 5 per cage. Skin mark using an oil magic pen and individual identification card were used for distinguishment. Feed for laboratory animals (PMI Nutrition International, USA) was provided at any time after being sterilized. Tap water was provided using a water bottle at any time after being purified by a carbon filter.
Arazyme of the invention was dissolved in distilled water for injection at the concentrations of 0, 1250, 2500 and 5000 mg/kg, and 10 ml/kg of each arazyme solution was orally administered once to rats using zonde. After one week-adaptation, the rats were divided into four groups. Different concentrations of arazyme were administered to rats at 10 weeks, and general symptoms were checked. To evaluate toxicity of arazyme to organs, autopsy was performed 24 hours after the administration.
After oral-administration of arazyme to female rats, any symptom according to the administration was investigated and behavior, appearance and biological functions of rats were also observed to evaluate toxicity.

[5] = autopsy 24 hours after administration

B1: arazyme: novel protease produced by Aranicola proteolyticus HY-3 (KCTC 0268BP); 51.5 kDa monomer; polypeptide sequence SEQ ID NO: 1 (protein, listed as Aranicola proteolyticus)
chain: MQSTKKAIEITESSLAAASSAYNAVDDLLHYHERGNGIQVNGKDSFSTEQAGLFITRENQTWNGYKVFGQPVKLTFSFPDYKFSSTNVAGDTGLSKFSAEQQQQAKLSLQSWSDVANITFTEVGAGQKANITFGNYSQDRPGHYDYDTQAYAFLPNTIYQGQNLGGQTWYNVNQSNVKHPASEDYGRQTFTHEIGHALGLSHPGDYNAGEGNPTYRDASYAEDTREFSLMSYWSETNTGGDNGGHYAAAPLLDDISAIQHLYGANQTTRTGDTVYGFNSNTGRDFLSTTSNPQKVIFAAWDAGGNDTFDFSGYTANQRINLNEKSFSDVGGLKGNVSIAAGVTIENAIGGSGNDVIVGNAANNVLKGGAGNDVLFGGGGADELWGGAGKDTFVFSAVSDSAPGASDWIKDFQKGIDKIDLSFFNQGAQGGDQIHFVDHFSGAAGEALLSYNASNNVSDLALNIGGHQAPDILVKIVGQVDVATDFIV
modifications: BINDING (192)..(192) Zn binding site
- necrosis in liver cells (liver cells; SMP30 knock-out C57BL/6 mice): significantly inhibited
- injury in liver cells around central vein region (liver cells; arazyme treated group, CCl4 liver injury): only weak injury
- necrosis in liver cells (liver cells; wild type C57BL/6 mice): significantly inhibited
- apoptosis of liver cells, histological observation (liver cells; wild type and SMP30 knock-out mice with acute liver injury): inhibition of apoptosis of liver cells was observed
- SMP30 expression (immunohistochemistry) (SMP30 [1]): higher; also recorded: more strongly expressed
- SMP30 expression (immunoblotting) (SMP30 [2]): high
- P-smad3 expression, arazyme groups compared with vitamin C groups (P-smad3 [3]; G4, G8 versus G3, G7, wild type and SMP30 knock-out mice): lower
- P-smad3 immune response (immunohistochemistry) (P-smad3 [3]; SMP30 knock-out mice, G6, G7 compared with G8): strongly detected in the groups treated with CCl4 alone or together with vitamin C (G6, G7), compared with the group (G8) treated with arazyme
- P-smad3 immune response (immunohistochemistry) (P-smad3 [3]; wild type mice, compared with CCl4 only (G2)): strong immune response against P-smad3 was detected in group 2 (G2) treated with CCl4 only, compared with the groups (G3, G4) treated with vitamin C and arazyme; also recorded: strongly observed in CCl4 treated group (G2), compared with the groups treated with vitamin C and arazyme (G3, G4)
- P-smad3 expression (immunoblotting) (P-smad3 [4]): inhibited
- appearance (hair coat, periocular region, ears, genitalia, limbs, tail) (rats): no changes
- biological functions (respiration, salivation, feces, emesis) (rats): no abnormal symptoms were found
- symptoms in relation to motion, walking, temper and convulsions (rats): no specific symptoms
- autopsy with naked eyes, organs (rats; [5]): did not cause any abnormal symptom or disorder in every organ
- microscopic observation of organs (liver, heart, lung, spleen) (rats; [5]): No pathological changes were observed
- autopsy with naked eyes, organs (rats; autopsy 24 hours after administration, listed as Arazyme): no abnormal symptoms were observed
